{
  "source": "the DeepSol protein solubility set",
  "data": [
    {"experiment": "soluble on expression in E. coli; label from the status in PepcDB or PDB records", "values": [
      {"sequence": "MNQQKSLTLIVALTTSYGIGRSNSLPWKLKKEISYFKRVTSFVPTFDSFESMNVVLMGRKTWESIPLQFRPLKGRINVVITRNESLDLGNGIHSAKSLDHALELLYRTYGSESSVQINRIFVIGGAQLYKAAMDHPKLDRIMATIIYKDIHCDVFFPLKFRDKEWSSVWKKEKHSDLESWVGTKVPHGKINEDGFDYEFEMWTRDL", "soluble on expression in E. coli": "soluble"},
      {"sequence": "MKAVAINGYGTVGKRVADAIAQQDDMKVIGVSKTRPDFEARMALKKGYDLYVAIPERVKLFEKAGIEVAGTVDDMLDEADIVIDCTPEGIGAKNLKMYKEKGIKAIFQGGEKHEDIGLSFNSLSNYEESYGKDYTRVVSCNTTGLCRTLKPLHDSFGIKKVRAVIVRRGADPAQVSKGPINAIIPNPPKLPSHHGPDVKTVLDINIDTMAVIVPTTLMHQHNVMVEVEETPTVDDIIDVFEDTPRVILISAEDGLTSTAEIMEYAKELGRSRNDLFEIPVWRESITVVDNEIYYMQAVHQESDIVPENVDAVRAILEMEEDKYKSINKTNKAMNILQ", "soluble on expression in E. coli": "soluble"},
      {"sequence": "IFIGNLDPEIDEKLLYDTFSAFGVILQTPKIMRDPDTGNSKGYAFINFASFDASDAAIEAMNGQYLCNRPITVSYAFKKDSKG", "soluble on expression in E. coli": "soluble"},
      {"sequence": "SRQHTSISDYDVMILDLTDVPMLDVTVGLALENAIKDALDARCEVYLLCPNQRTREQLEKFHVIDLVPDNNMYQFRYEALNAAVAHVESDQYQRMTA", "soluble on expression in E. coli": "not soluble"},
      {"sequence": "MPYSSSGVGHNGFDKADLHIHTKCSDGLFTPEEIVHKAIHVGLKAISITDHDTVTGIDQAKPLALELGLELIPGVEMSSAYKGYDIHILGYFFDYQQSELKGYLDHCRLLRTERAERMVQKLAKMGVKIEIEQIIMKAQNGSVGRPHIAAVLQDEGFVKSFSEAFSKYLGSHSPAYVKSIETHPEEVIRLINEAGGLSFLAHPAQNVPDEILRQLISFGLDGLEIIHPSHDTYRQNYYREIANEYFLLFSGGSDYHGPKDHEDNFGQVWIPYEWVTKMKSRLAPAVKE", "soluble on expression in E. coli": "not soluble"},
      {"sequence": "MTQAVMLQGTASDVGKSVLAAGLCRIFYQDGLRTAPFKSQNMALNSGITPDGKEMGRAQIFQAEAAGITPDVRMNPVLLKPTSDRQAQVVLMGKVATNMDAVSYHDYKPRLREQILAVYNSLAQEYDVIVLEGAGSPAEINLRDRDIVNMGMAEMAQCPVILVADIDRGGVFAAIYGTLALLHKQERDRVKGVIINKFRGDVALLYSGIEQIESLTGVPVLGVMPWLDVDLEDEDGVALQNDKYRGNAPRDITIAIVQLPHISNFTDFNALAAQPDVRIRYIRRPEALTDVDLVILPGSKNTLSDLAWLRESGMADAVLQTHRQGVPVMGICGGYQMLGDTIVDEVESGLGTQPGLGLLNTITRFAQDKTTTQVNATMSGELPGWLAAAAGLPVRGYEIHMGETVLQEGCCTAMTLQKNGCSVADGAVTADGLAFGTYLHGLFDSDAFTRAVVNGLRARKGLAPWETTFCYADHKARQFDLLAEAMRQHIDIDKIYTIMQQHQEPV", "soluble on expression in E. coli": "not soluble"},
      {"sequence": "GPGSMQEEVTEHKYNIVFSRDPVPSGLSEEQYYPMRLSNGSAYLCVLPDITVEEKKTLQAEDSELDVPLSLEHVAVVNRALKNMCYTMEESWWTYRLCWGSGVEQFHRSAVAGDSKSNAPKQMKEDPHFVLGVAPPADVLDLRYGVNTKGLRYIYTIYSDGLTCDLTQLPRTTEVQLYCAREGEGNSPTMRVREAEVCRYIVSLTAKEVCLLGLKEIQQRYGVITCHETKPTNTVDWNNKQQG", "soluble on expression in E. coli": "not soluble"},
      {"sequence": "MSLHPEQIHNAINCLCLAATATVAGAMISMGCTTGQRSNSRNSRKSSRSNKSKRSQRSKRRSAQRKKSSSRRKKKLRKEKSRKSQRSKRKKRESERRKKERSKRIARSKKSIKRDRERDSDSSRIKKSGSKRNLEKSNRDDSKRKISKDKNSRRSSQEKSHKYSEPLFIPPVDYDDRDRSLKKKKSVRDNNEEGSRRSSSRDKSKDMKEKSQQSKKDSSRKSKKQQKSEKKKSAEQDNRSDPEDDREAEAPNWRRRRRAKEDQNVKARKTKKVKKNEEVPSKKSSKMSKRSKRSTDENLETAKSSRILKDSEPKSSRSSVTSQKIDSSRGMSKLRADALKRMEPKLLVSPNANSDRFQCNEKGCQKGQCSSEARYAQNVRRSASQKSLRAPKENKLKDGSAKTPKVSSTTTPPVDTMRTPTQEPRSIYIETGKSTYGEASKTSGNNARSVYLADPVSAPKAYSVTPQKSTKTPSERKSEKNLEKKASKKSIKSSRSGIQQREVTKTSSKHSSKHSKAPSSKKSSKKSSKKEQKSRALSNSSSKKSVGSHRNKSNR", "soluble on expression in E. coli": "not soluble"},
      {"sequence": "EGLDYLTAPNPPSIREELCTASHDTITVHWISDDEFSISSYELQYTIFTGQANFISLYNSVDSWMIVPNIKQNHYTVHGLQSGTRYIFIVKAINQAGSRNSEPTRLKTNSQPFK", "soluble on expression in E. coli": "soluble"}
    ]}
  ]
}
